Earlier results on one substance are cited in PMC4004251.

Targets include Glu42 (UniProt position 268, NGVDGEWTYDD); Glu15 (UniProt position 241, KTLKGETTTEA); Glu27 (UniProt position 253, DAATAEKVFKQ).
Settings in all cases: folded GB1 (the article states the structure is stable above pH 3)

Regarding “Immunoglobulin G-binding protein G, B1 domain (GB1) (Streptococcus sp. group G)”, the pKa entry with Glu42 was “about 4.5”; in the data set with Glu15, “near 4.5”; in the data set with Glu27 it was “about 4.5”.
